Reference: patent US20220090139A1
Read-outs that look alike come from different tables or passages of the source.

How the values were obtained:
[1] = target: 10-amber 13-amber hoc-del soc-del T4 heads (bacteriophage T4) (UniProt P04535); test: co-display with Cre-Hoc on the same T4 head
[2] = target: 10-amber 13-amber hoc-del soc-del T4 heads (bacteriophage T4) (UniProt P04535); test: display of RNP on T4 heads through Soc
[3] = target: 10-amber 13-amber hoc-del soc-del T4 heads (bacteriophage T4) (UniProt P04535); test: in vitro display on T4 heads, pelleting, SDS-PAGE densitometry against gp23* (930 copies)
[4] = target: 10-amber 13-amber hoc-del soc-del T4 heads (bacteriophage T4) (UniProt P04535)
[5] = target: 10-amber 13-amber hoc-del soc-del T4 heads (bacteriophage T4) (UniProt P04535); test: co-display with Cas9-gRNA RNP on the same T4 head
[6] = target: 10-amber 13-amber hoc-del soc-del T4 heads (bacteriophage T4) (UniProt P04535); test: display titration on T4 heads, SDS-PAGE (FIG. 21)
[7] = target: 10-amber 13-amber hoc-del soc-del T4 heads (bacteriophage T4) (UniProt P04535); test: display on T4 heads, copies per capsid compared
[8] = target: 10-amber 13-amber hoc-del soc-del T4 heads (bacteriophage T4) (UniProt P04535); test: Soc-TAT displayed on T4(Luci) heads used for transduction (FIG. 28)
[9] = target: 10-amber 13-amber hoc-del soc-del T4 heads (bacteriophage T4) (UniProt P04535); test: display titration on T4 heads, SDS-PAGE (FIG. 20)

Substance | Copies/capsid (copies per capsid) [4] | also measured
Cas9-gRNA ribonucleoprotein (RNP) complex fused to Soc (from UniProt Q99ZW2 1-1368) | – | copies per capsid (molecules per AV) [1]: 270; copies per capsid (copies per capsid) [2]: 280
Cpf1-Soc (enzyme) | – | Copies/capsid (copies per capsid) [3]: 450
Cre-Hoc (enzyme) | 95 | copies per capsid (molecules per AV) [5]: 50; ratio of protein molecules to binding sites at saturation (molecules per binding site) [6]: 15 to 20
Cre-Soc (enzyme) | 630 | –
GFP-Soc (from UniProt P03715 1-80) | 660 | –
NLS-Cas9-Soc (from UniProt Q99ZW2 1-1368) (enzyme) | 550 | –
RGD-Hoc (from UniProt P18056 1-376) | 85 | –
Soc-RGD (from UniProt P03715 1-80) | 710 | fold copy number against RGD-Hoc [7]: 8.3 fold
Soc-TAT (from UniProt P03715 1-80) | 750 | copies per capsid (copies per capsid) [8]: 520
β-Gal-Soc (from UniProt P00722 1-1024; P03715 1-80) (enzyme) | 320 | ratio of protein molecules to binding sites at saturation (molecules per binding site) [9]: 15 to 20
